Assay results as given in publication PMC11413003.

How the values were obtained:
[1] = biological target: complex III2 (CIII2) dimer of S. cerevisiae (S. cerevisiae) (UniProt P08067); assay: cryo-EM structure; 10.5 uM supercomplex with 126 uM S. cerevisiae cyt. c (~1:12) in 20 mM KCl, 20 mM KH2PO4 pH 7.4, 0.01 % GDN; 3D classification with a mask over the cyt. c region
[2] = biological target: S. cerevisiae CIII2CIV1/2 supercomplex (S. cerevisiae) (UniProt P08067)
[3] = biological target: S. cerevisiae CIII2CIV1/2 supercomplex (S. cerevisiae) (UniProt P08067); assay: cryo-EM structure; 10.5 uM supercomplex with 126 uM S. cerevisiae cyt. c (~1:12) in 20 mM KCl, 20 mM KH2PO4 pH 7.4, 0.01 % GDN; 3D classification with a mask over the cyt. c region

Row | stoichiometry N [1] | QH2:O2 oxidoreductase activity (O2 reduction upon addition of QH2) of the supercomplex, cyt. c varied up to ~50 uM, 20 mM KCl [2] [electrons/s] | stoichiometry N (cyt. c per CIII monomer-CIV pair) [3] | Substance
1 | 2 | – | – | complex III2 (CIII2) dimer of S. cerevisiae (from UniProt P08067 31-215; P07143 62-309; P00127 1-147; P22289 1-66)
2 | – | 50 | 2 | cytochrome c from S. cerevisiae (from UniProt P00044 1-109) (natural protein)
